Measurements published in patent US20240052059A1 (PUBLIC UNIVERSITY CORPORATION NARA MEDICAL UNIVERSITY, published 2024).

Molecular target: FIX remaining in commercially-available FIX-deficient human plasma (trace amount) (human, UniProt P00740 47-461)
Test: cell-based or functional assay

Chain of FIX remaining in commercially-available FIX-deficient human plasma (trace amount) (P00740 47-461 limits assumed): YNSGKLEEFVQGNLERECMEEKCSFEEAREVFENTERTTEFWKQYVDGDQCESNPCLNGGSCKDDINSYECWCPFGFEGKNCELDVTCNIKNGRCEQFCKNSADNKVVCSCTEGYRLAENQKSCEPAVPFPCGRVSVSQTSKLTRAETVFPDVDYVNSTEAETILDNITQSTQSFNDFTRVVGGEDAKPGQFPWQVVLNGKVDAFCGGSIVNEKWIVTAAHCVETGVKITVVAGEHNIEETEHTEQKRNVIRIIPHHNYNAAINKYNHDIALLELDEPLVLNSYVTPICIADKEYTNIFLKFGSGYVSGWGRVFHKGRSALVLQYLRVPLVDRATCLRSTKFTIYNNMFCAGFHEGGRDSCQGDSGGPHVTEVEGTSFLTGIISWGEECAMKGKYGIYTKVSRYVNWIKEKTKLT

APTT shortening ratio with 100 ug/mL ACE910 in FIX-deficient human plasma without FIX formulation, after further addition of anti-FIX-Gla antibody (150 ug/mL): -3%
B1: ACE910 (Emicizumab), anti-FIXa/FX bispecific antibody (Q499-z121/J327-z119/L404-k) (bispecific antibody, human IgG4 S228P, kappa)
heavy 1: QVQLVESGGGLVQPGGSLRLSCAASGFTFSYYDIQWVRQAPGKGLEWVSSISPSGQSTYYRREVKGRFTISRDNSKNTLYLQMNSLRAEDTAVYYCARRTGREYGGGWYFDYWGQGTLVTVSSASTKGPSVFPLAPCSRSTSESTAALGCLVKDYFPEPVTVSWNSGALTSGVHTFPAVLQSSGLYSLSSVVTVPSSSLGTQTYTCNVDHKPSNTKVDKRVESKYGPPCPPCPAPEFLGGPSVFLFPPKPKDTLMISRTPEVTCVVVDVSQEDPEVQFNWYVDGVEVHNAKTKPREEQYNSTYRVVSVLTVLHQDWLNGKEYKCKVSNKGLPSSIEKTISKAKGQPREPQVYTLPPSQKEMTKNQVSLTCLVKGFYPSDIAVEWESNGQPENNYKTTPPVLDSDGSFFLYSKLTVDKSRWQEGNVFSCSVMHEALHNRYTQKSLSLSP
heavy 2: QVQLVQSGSELKKPGASVKVSCKASGYTFTDNNMDWVRQAPGQGLEWMGDINTRSGGSIYNEEFQDRVIMTVDKSTDTAYMELSSLRSEDTATYHCARRKSYGYYLDEWGEGTLVTVSSASTKGPSVFPLAPCSRSTSESTAALGCLVKDYFPEPVTVSWNSGALTSGVHTFPAVLQSSGLYSLSSVVTVPSSSLGTQTYTCNVDHKPSNTKVDKRVESKYGPPCPPCPAPEFLGGPSVFLFPPKPKDTLMISRTPEVTCVVVDVSQEDPEVQFNWYVDGVEVHNAKTKPREEQYNSTYRVVSVLTVLHQDWLNGKEYKCKVSNKGLPSSIEKTISKAKGQPREPQVYTLPPSQEEMTKNQVSLTCLVKGFYPSDIAVEWESNGQPENNYKTTPPVLDSDGSFFLYSKLTVDKSRWQEGNVFSCSVMHEALHNHYTQESLSLSP
light: DIQMTQSPSSLSASVGDRVTITCKASRNIERQLAWYQQKPGQAPELLIYQASRKESGVPDRFSGSRYGTDFTLTISSLQPEDIATYYCQQYSDPPLTFGGGTKVEIKRTVAAPSVFIFPPSDEQLKSGTASVVCLLNNFYPREAKVQWKVDNALQSGNSQESVTEQDSKDSTYSLSSTLTLSKADYEKHKVYACEVTHQGLSSPVTKSFNRGEC
